Measurements from publication PMC10117725, “From an Hsp90 - binding protein to a peptide drug” (microLife, 2022).

Target: T1, Hsp90α (Homo sapiens, UniProt P07900)
T1 construct: purchased Abcam
Assay type: binding
Details: dot blot, 2 µg blotted on membrane, 20 µg recombinant Hsp90α at 4°C overnight, α-Hsp90α immunodetection
Procedure: Two µg of each peptide was blotted (dot blot) directly on PDV nitrocellulose membrane and blocked with ROTI®Block (Carl Roth, Germany). After washing, the membrane was then incubated with 20 μg of recombinant Hsp90α (Abcam)/Lpl1-his protein at 4°C overnight. In case of interaction studies with Hsp90α, α-Hsp90α (produced in mouse, Abcam) was used as the primary antibody and for interaction studies with Lpl1-his, Anti-6X His tag antibody (also produced in mouse, Sigma-Aldrich, Germany) was used. Alkaline phosphatase conjugated goat-α-mouse IgG (Sigma-Aldrich, Germany) served as the secondary antibody. Detection was done using BCIP®/NBT solution (Sigma, Germany). Lpl1-his was isolated and purified as described in our previous paper (Tribelli et al. [2020]).

B1: Lpl1: model Lpl lipoprotein of S. aureus, parent protein of the peptides (protein)
chain: CGKGNETKEDSKEEQIKKSFAITLDMYPIKNLEDLYDKEGYRDSEFKKGDKGMWTIYTDFAKSNKPGELDDEGMVLNLDRNTRTAKGHYFVTTFYRNGKLPDEKNYKIEMKNNKIILLDEVKDDKLKQKIENFKFFGQYANLKELRKYNNGDVSINENVPSYDVEYKMSNKDEIVKELRSRYNISTEKSPILKMHIDGDLKGSSVGYRKLEIDFSKRENSKLSVIEFLSYKPAKK
modifications: left off: His tag, end not stated, kept
notes: model Lpl lipoprotein of S. aureus, parent protein of the peptides
  Interaction with Hsp90α: Yes
